The numbers were not newly measured in patent publication US11207384B2, “Rapid-acting insulin compositions” (Eli Lilly and Company, priority 2017, dated 2021), which cites them from elsewhere.

The conditions of series [1]: for time until maximum circulating insulin concentration is reached: following the injection.
The conditions of series [2]: on a molar basis.
The target in the next series is T1, insulin receptor (Homo sapiens, UniProt P06213).
T1 construct: host or cells: cultured lymphocytes, human placenta, human liver
The note with it: insulin receptor binding in cultured lymphocytes, human placenta and human liver, glucose transport in adipocytes.

On to insulin aspart, for which, in series [1], the “time until maximum circulating insulin concentration is reached” value was 50 to 90 min.

Turning to insulin glulisine, in series [1], the “time until maximum circulating insulin concentration is reached” value was 50 to 90 min.

As for insulin lispro, the “potency relative to human insulin (in words)” value in series [2] was “equipotent to human insulin on a molar basis”. Also, in series [1] (Tmax, half-life, Cmax), the “kinetics compared to human insulin (in words)” value is “shorter Tmax and half-life and with a higher Cmax”. Moreover, the “time until maximum circulating insulin concentration is reached” value in series [1] is 50 to 90 min. In addition, the “effect after subcutaneous injection compared with soluble human insulin (in words)” value in series [1] (subcutaneous injection) is “more rapid and of shorter duration than that of injected soluble human insulin”. Besides, the “equivalence to insulin in in vitro tests (in words)” value in the series with insulin receptor is “biologically equivalent to insulin”.
